Article PMC8748919, “Dynamics and mechanism of dimer dissociation of photoreceptor UVR8” (Nature Communications, 2022)

B1: UVR8 W144 single-Trp mutant (receptor, Arabidopsis thaliana, UniProt Q9FN03 1-440, looked up)
chain: MAEDMAADEVTAPPRKVLIISAGASHSVALLSGDIVCSWGRGEDGQLGHGDAEDRPSPTQLSALDGHQIVSVTCGADHTVAYSQSGMEVYSWGWGDFGRLGHGNSSDLFTPLPIKALHGIRIKQIACGDSHCLAVTMEGEVQSFGRNQNGQLGLGDTEDSLVPQKIQAFEGIRIKMVAAGAEHTAAVTEDGDLYGWGWGRYGNLGLGDRTDRLVPERVTSTGGEKMSMVACGWRHTISVSYSGALYTYGWSKYGQLGHGDLEDHLIPHKLEALSNSFISQISGGWRHTMALTSDGKLYGWGWNKFGQVGVGNNLDQCSPVQVRFPDDQKVVQVSCGWRHTLAVTERNNVFAWGRGTNGQLGIGESVDRNFPKIIEALSVDGASGQHIESSNIDPSSGKSWVSPAERYAVVPDETGLTDGSSKGNGGDISVPQTDVKRVRI
notes: UVR8, Arabidopsis thaliana; mutant plasmid built on the wild-type plasmid; also called W144F; source: E. coli BL21-DE3, purified (Ni-Sepharose, Source-15Q)
B2: UVR8 W196 single-Trp mutant (receptor, Arabidopsis thaliana, UniProt Q9FN03 1-440, looked up)
chain: MAEDMAADEVTAPPRKVLIISAGASHSVALLSGDIVCSWGRGEDGQLGHGDAEDRPSPTQLSALDGHQIVSVTCGADHTVAYSQSGMEVYSWGWGDFGRLGHGNSSDLFTPLPIKALHGIRIKQIACGDSHCLAVTMEGEVQSWGRNQNGQLGLGDTEDSLVPQKIQAFEGIRIKMVAAGAEHTAAVTEDGDLYGFGWGRYGNLGLGDRTDRLVPERVTSTGGEKMSMVACGWRHTISVSYSGALYTYGWSKYGQLGHGDLEDHLIPHKLEALSNSFISQISGGWRHTMALTSDGKLYGWGWNKFGQVGVGNNLDQCSPVQVRFPDDQKVVQVSCGWRHTLAVTERNNVFAWGRGTNGQLGIGESVDRNFPKIIEALSVDGASGQHIESSNIDPSSGKSWVSPAERYAVVPDETGLTDGSSKGNGGDISVPQTDVKRVRI
notes: UVR8, Arabidopsis thaliana; mutant plasmid built on the wild-type plasmid; also called W196F; source: E. coli BL21-DE3, purified (Ni-Sepharose, Source-15Q)
B3: UVR8 W94F (receptor, Arabidopsis thaliana, UniProt Q9FN03 1-440, looked up)
chain: MAEDMAADEVTAPPRKVLIISAGASHSVALLSGDIVCSWGRGEDGQLGHGDAEDRPSPTQLSALDGHQIVSVTCGADHTVAYSQSGMEVYSWGFGDFGRLGHGNSSDLFTPLPIKALHGIRIKQIACGDSHCLAVTMEGEVQSWGRNQNGQLGLGDTEDSLVPQKIQAFEGIRIKMVAAGAEHTAAVTEDGDLYGWGWGRYGNLGLGDRTDRLVPERVTSTGGEKMSMVACGWRHTISVSYSGALYTYGWSKYGQLGHGDLEDHLIPHKLEALSNSFISQISGGWRHTMALTSDGKLYGWGWNKFGQVGVGNNLDQCSPVQVRFPDDQKVVQVSCGWRHTLAVTERNNVFAWGRGTNGQLGIGESVDRNFPKIIEALSVDGASGQHIESSNIDPSSGKSWVSPAERYAVVPDETGLTDGSSKGNGGDISVPQTDVKRVRI
notes: UVR8, Arabidopsis thaliana; mutant plasmid built on the wild-type plasmid; source: E. coli BL21-DE3, purified (Ni-Sepharose, Source-15Q)
B4: UVR8 W198 single-Trp mutant (receptor, Arabidopsis thaliana, UniProt Q9FN03 1-440, looked up)
chain: MAEDMAADEVTAPPRKVLIISAGASHSVALLSGDIVCSWGRGEDGQLGHGDAEDRPSPTQLSALDGHQIVSVTCGADHTVAYSQSGMEVYSWGWGDFGRLGHGNSSDLFTPLPIKALHGIRIKQIACGDSHCLAVTMEGEVQSWGRNQNGQLGLGDTEDSLVPQKIQAFEGIRIKMVAAGAEHTAAVTEDGDLYGWGFGRYGNLGLGDRTDRLVPERVTSTGGEKMSMVACGWRHTISVSYSGALYTYGWSKYGQLGHGDLEDHLIPHKLEALSNSFISQISGGWRHTMALTSDGKLYGWGWNKFGQVGVGNNLDQCSPVQVRFPDDQKVVQVSCGWRHTLAVTERNNVFAWGRGTNGQLGIGESVDRNFPKIIEALSVDGASGQHIESSNIDPSSGKSWVSPAERYAVVPDETGLTDGSSKGNGGDISVPQTDVKRVRI
notes: UVR8, Arabidopsis thaliana; mutant plasmid built on the wild-type plasmid; also called W198F; source: E. coli BL21-DE3, purified (Ni-Sepharose, Source-15Q)
B5: UVR8 W300 single-Trp mutant (receptor, Arabidopsis thaliana, UniProt Q9FN03 1-440, looked up)
chain: MAEDMAADEVTAPPRKVLIISAGASHSVALLSGDIVCSWGRGEDGQLGHGDAEDRPSPTQLSALDGHQIVSVTCGADHTVAYSQSGMEVYSWGWGDFGRLGHGNSSDLFTPLPIKALHGIRIKQIACGDSHCLAVTMEGEVQSWGRNQNGQLGLGDTEDSLVPQKIQAFEGIRIKMVAAGAEHTAAVTEDGDLYGWGWGRYGNLGLGDRTDRLVPERVTSTGGEKMSMVACGWRHTISVSYSGALYTYGWSKYGQLGHGDLEDHLIPHKLEALSNSFISQISGGWRHTMALTSDGKLYGFGWNKFGQVGVGNNLDQCSPVQVRFPDDQKVVQVSCGWRHTLAVTERNNVFAWGRGTNGQLGIGESVDRNFPKIIEALSVDGASGQHIESSNIDPSSGKSWVSPAERYAVVPDETGLTDGSSKGNGGDISVPQTDVKRVRI
notes: UVR8, Arabidopsis thaliana; mutant plasmid built on the wild-type plasmid; also called W300F; source: E. coli BL21-DE3, purified (Ni-Sepharose, Source-15Q)
B6: UVR8 W337F (receptor, Arabidopsis thaliana, UniProt Q9FN03 1-440, looked up)
chain: MAEDMAADEVTAPPRKVLIISAGASHSVALLSGDIVCSWGRGEDGQLGHGDAEDRPSPTQLSALDGHQIVSVTCGADHTVAYSQSGMEVYSWGWGDFGRLGHGNSSDLFTPLPIKALHGIRIKQIACGDSHCLAVTMEGEVQSWGRNQNGQLGLGDTEDSLVPQKIQAFEGIRIKMVAAGAEHTAAVTEDGDLYGWGWGRYGNLGLGDRTDRLVPERVTSTGGEKMSMVACGWRHTISVSYSGALYTYGWSKYGQLGHGDLEDHLIPHKLEALSNSFISQISGGWRHTMALTSDGKLYGWGWNKFGQVGVGNNLDQCSPVQVRFPDDQKVVQVSCGFRHTLAVTERNNVFAWGRGTNGQLGIGESVDRNFPKIIEALSVDGASGQHIESSNIDPSSGKSWVSPAERYAVVPDETGLTDGSSKGNGGDISVPQTDVKRVRI
notes: as for B3

Biological target: the molecule itself
Assay: SEC; dimer/monomer state of the purified protein before UV irradiation; 150 mM NaCl, 25 mM Tris-HCl, pH 8.0

Binding result, binds:
B1
B2
B3
B4
B5
B6
